In patent US20140017242A1, “ANTI-BRADYKININ B2 RECEPTOR (BKB2R) MONOCLONAL ANTIBODY” (Diamedica, Inc., priority 2010, published 2014):
Changes are numbered by the printed parent chain. Where no end group is shown, it is not given here.

T1: human BKB2R-derived epitope peptide (SEQ ID NO:73), PEG-biotin (human, also: PEG-biotin, site not given here)
T1 construct: also called immunogenic human BKB2R peptide fragment
T1 peptide: KEYSDEGHNVTAC

B1: humanized anti-BKB2R antibody H37/L37 (antibody, human IgG2, kappa, V domains shown)
VH: EVQLVESGGGLVQPGGSLRLSCAASGFTFSDYWMDWVRQAPGKGLEWVGEIRLKSDNYATHYAASVKGRFTISRDDSKNSLYLQMNSLKTEDTAVYYCTRDYYAMEYWGQGTTVTVSS
VL: DIVMTQTPLSLSVTPGQPASISCKSSQTIVHSNGKTYLYWYLQKPGQSPQLLIYKVSSRFSGVPDRFSGSGSGTDFTLKISRVEAEDVGVYYCFQASHVPYTFGQGTKLEIKR
B2: humanized anti-BKB2R antibody H37/L38 (antibody, human IgG2, kappa, V domains shown)
VH: B1 VH
VL: B1 VL with S12P, P15S, Q17E, K24R, Y39D, S58N, F60A, Q105G, L109V
B3: humanized anti-BKB2R antibody H37/L39 (antibody, human IgG2, kappa, V domains shown)
VH: B1 VH
VL: B1 VL with I2V, Y39E, S58N
B4: humanized anti-BKB2R antibody H38/L37 (antibody, human IgG2, kappa, V domains shown)
VH: B1 VH with V5L, R19K, A24V, D35S, G49S, A64D, S80T, K89R, T90A, T113L
VL: B1 VL
B5: humanized anti-BKB2R antibody H39/L37 (antibody, human IgG2, kappa, V domains shown)
VH: B1 VH with Q3K, A24V, G49A, N79S, S80R
VL: B1 VL
B6: humanized anti-BKB2R antibody H39/L39 (antibody, human IgG2, kappa, V domains shown)
VH: B1 VH with Q3K, A24V, G49A, N79S, S80R
VL: B1 VL with I2V, Y39E, S58N
B7: humanized anti-BKB2R antibody H38/L38 (antibody, human IgG2, kappa, V domains shown)
VH: B1 VH with V5L, R19K, A24V, D35S, G49S, A64D, S80T, K89R, T90A, T113L
VL: B1 VL with S12P, P15S, Q17E, K24R, Y39D, S58N, F60A, Q105G, L109V
B8: humanized anti-BKB2R antibody H38/L39 (antibody, human IgG2, kappa, V domains shown)
VH: B1 VH with V5L, R19K, A24V, D35S, G49S, A64D, S80T, K89R, T90A, T113L
VL: B1 VL with I2V, Y39E, S58N
B9: humanized anti-BKB2R antibody H39/L38 (antibody, human IgG2, kappa, V domains shown)
VH: B1 VH with Q3K, A24V, G49A, N79S, S80R
VL: B1 VL with S12P, P15S, Q17E, K24R, Y39D, S58N, F60A, Q105G, L109V
B10: L1/H1: humanized anti-BKB2R mAb, light chain L1 (SEQ ID NO:8), heavy chain H1 (SEQ ID NO:3), human IgG2/kappa (antibody, V domains shown)
VH: B1 VH with D35S, G49A, A64E, D76N, S77A, K89R, T90A, T113L
VL: DIVMTQSPLSLPVTPGEPASISCRSSQTIVHSNGKTYLEWYLQKPGQSPQLLIYKVSNRFSGVPDRFSGSGSGTDFTLKISRVEAEDVGVYYCFQASHVPYTFGQGTKLEIK
modifications: Humanized H1 Heavy Chain Variable Region VH; Humanized L1 Light Chain Variable Region VL
B11: L1/HC: humanized light chain L1 (SEQ ID NO:8) with HC, the mouse original 5F12G1 VH (antibody)
heavy: EVKLEESGGGLVQPGGSMKLSCVVSGFTFSDYWMSWVRHSPEMGLEWVAEIRLKSDNYATHYAESVKGRFTISRDDSKSRLYLQINSLRGEDTGIYYCTRDYYAMEYWGQGTSVTVSS
light: DIVMTQSPLSLPVTPGEPASISCRSSQTIVHSNGKTYLEWYLQKPGQSPQLLIYKVSNRFSGVPDRFSGSGSGTDFTLKISRVEAEDVGVYYCFQASHVPYTFGQGTKLEIKRTVAAPSVFIFPPSDEQLKSGTASVVCLLNNFYPREAKVQWKVDNALQSGNSQESVTEQDSKDSTYSLSSTLTLSKADYEKHKVYACEVTHQGLSSPVTKSFNRGEC
modifications: left off: a dimerising Fc or GST
B12: L2/HC: humanized light chain L2 (SEQ ID NO:9) with HC, the mouse original 5F12G1 VH (antibody)
heavy: B11 heavy
light: B11 light with D75E
modifications: left off: a dimerising Fc or GST
B13: L2/H1: humanized anti-BKB2R mAb, light chain L2 (SEQ ID NO:9), heavy chain H1 (SEQ ID NO:3) (antibody, V domains shown)
VH: B1 VH with D35S, G49A, A64E, D76N, S77A, K89R, T90A, T113L
VL: B10 VL with D75E
modifications: Humanized H1 Heavy Chain Variable Region VH; Humanized L2 Light Chain Variable Region VL
B14: L1/H2: humanized anti-BKB2R mAb, light chain L1 (SEQ ID NO:8), heavy chain H2 (SEQ ID NO:4) (antibody, V domains shown)
VH: B1 VH with A23V, D35S, G49A, A64E, S77A, K89R, T90A, T113L
VL: B10 VL
modifications: Humanized H2 Heavy Chain Variable Region VH; Humanized L1 Light Chain Variable Region VL
B15: H38/L38: humanized anti-BKB2R mAb, heavy chain H38 (SEQ ID NO:6), light chain L38 (SEQ ID NO:11) (antibody, V domains shown)
VH: B1 VH with V5L, R19K, A24V, D35S, G49S, A64D, S80T, K89R, T90A, T113L
VL: B10 VL with S7T, P15S, E39D, F60A, Q105G, L109V
modifications: Humanized H38 Heavy Chain Variable Region VH; Humanized L38 Light Chain Variable Region VL
B16: H39/L37: humanized anti-BKB2R mAb, heavy chain H39 (SEQ ID NO:7), light chain L37 (SEQ ID NO:10) (antibody, V domains shown)
VH: B1 VH with Q3K, A24V, G49A, N79S, S80R
VL: B10 VL with S7T, P12S, E17Q, R24K, E39Y, N58S
modifications: Humanized H39 Heavy Chain Variable Region VH; Humanized L37 Light Chain Variable Region VL

Biological target: T1, human BKB2R-derived epitope peptide …
Assay: BLI (Octet), peptide-PEG-biotin on streptavidin sensor, antibody 500 nM
Conditions: not given
Procedure: (§1) For the Octet study, antibodies were analyzed by kinetic titration of the antibodies. Antibodies were prepared in kinetic buffer (0.001 M phosphate buffered saline (NaCl 0.0138 M; KCl-0.00027 M); pH 7.4, at 25° C., 0.1 mg/ml BSA, 0.002% Tween and 0.005% Sodium Azide) followed by 1:2 serial dilutions.
(§2) Sensor Prep: Streptavidin biosensors (FortéBio Inc, Menlo Park, Calif.) were coated by incubation in a solution containing a peptide ([…]-PEG-biotin) (Biosyn, Lewisville, Tex.) at 50 μg/ml (300 seconds/1000 rpm shaking). 96 well half-volume plates were used for testing. 90 μl of sample was plated per well. Sensors were allowed to equilibrate to baseline in kinetic buffer (60 seconds/1000 rpm). The sensors were then placed into the various antibody dilutions to allow binding (association) to the probe for 500 seconds/1000 rpm, and measurements were taken. The sensors were then moved into kinetic buffer without antibody for dissociation (500 seconds/1000 rpm), and measurements were taken. Octet system software calculated kinetic constants for on rate/off rate/affinity.
For test humanized monoclonal antibodies, the highest concentration used was 500 nM followed by 1:2 dilutions. Each concentration was tested twice. The HC and LC represented the mouse original 5F12G1 VH and VL sequences.

| Molecule | Kd | Max Response | koff | kon |
| --- | --- | --- | --- | --- |
| B1 | 758 nM | 0.12 | 1.18 s⁻¹ | 1.55e+06 M⁻¹ s⁻¹ |
| B2 | 220 nM | 0.173 | 2.08 s⁻¹ | 9.47e+06 M⁻¹ s⁻¹ |
| B3 | 1230 nM | 0.121 | 1.98 s⁻¹ | 1.11e+06 M⁻¹ s⁻¹ |
| B4 | 3110 nM | 0.577 | 29.4 s⁻¹ | 9.44e+06 M⁻¹ s⁻¹ |
| B5 | 23.4 nM | 0.119 | 0.0288 s⁻¹ | 1.23e+06 M⁻¹ s⁻¹ |
| B6 | 1730 nM | 0.0915 | 1.26 s⁻¹ | 729000 M⁻¹ s⁻¹ |
| B7 | 2.49 nM | 0.132 | 0.00763 s⁻¹ | 3.06e+06 M⁻¹ s⁻¹ |
| B8 | 93.2 nM | 0.0681 | 106 s⁻¹ | 1.14e+09 M⁻¹ s⁻¹ |
| B9 | 761 nM | 0.143 | 4.9 s⁻¹ | 6.44e+06 M⁻¹ s⁻¹ |

biological target: T2, human BKB2R-derived epitope peptide, SE ID NO:73 (Homo sapiens, UniProt P30411); assay: ForteBio Octet binding kinetics to the BKB2R epitope peptide; conditions: Conc. 250 nM
T2 construct: purchased Biosyn, Lewisville, Tex
Procedure: Proteins corresponding to all combinations of humanized or chimeric (5F12G1 VH and VL on human IgG2 backbone) antibodies were tested for binding to the human BKB2R-derived epitope peptide, SE ID NO:73.
A ForteBio (Menlo Park, Calif., USA) Octet® platform was used to analyze the binding affinities and binding characteristics of the humanized monoclonal antibodies to the peptide epitope (SEQ ID NO:73) and compared to the original mouse monoclonal 5F12G1. This platform employed label-free technology for measuring biomolecular interactions by optical analysis of the interference pattern of white light reflected from two surfaces: a layer of immobilized protein on the biosensor tip, and an internal reference layer. Any change in the number of molecules bound to the biosensor tip caused a shift in the interference pattern that was measured in real-time. Binding specificity, and rates of association and dissociation were monitored.
as §1, §2
[…] […] Each concentration was tested twice. The HC and LC represented the mouse original 5F12G1 VH and VL sequences.

| Molecule | kdis | kon |
| --- | --- | --- |
| B10 | 0.701 s⁻¹ | 1.59e+06 M⁻¹ s⁻¹ |
| B11 | 0.728 s⁻¹ | 239000 M⁻¹ s⁻¹ |
| B12 | 0.732 s⁻¹ | 2.17e+06 M⁻¹ s⁻¹ |
| B13 | 0.00438 s⁻¹ | 216000 M⁻¹ s⁻¹ |
| B14 | 0.719 s⁻¹ | 350000 M⁻¹ s⁻¹ |

same assay, conditions: Conc. 500 nM

| Molecule | kdis | kon |
| --- | --- | --- |
| B15 | 0.00763 s⁻¹ | 3.06e+06 M⁻¹ s⁻¹ |
| B16 | 0.0288 s⁻¹ | 1.23e+06 M⁻¹ s⁻¹ |
| B10 | 0.942 s⁻¹ | 404000 M⁻¹ s⁻¹ |
| B11 | 2.16 s⁻¹ | 543000 M⁻¹ s⁻¹ |
| B12 | 0.655 s⁻¹ | 145000 M⁻¹ s⁻¹ |
| B13 | 0.00507 s⁻¹ | 1.21e+06 M⁻¹ s⁻¹ |
| B14 | 0.976 s⁻¹ | 2.43e+06 M⁻¹ s⁻¹ |

same assay, conditions: Octet, epitope peptide

| Molecule | binding compared with the original mouse monoclonal antibody |
| --- | --- |
| B15 | stronger binding (lower KD) |
| B16 | stronger binding (lower KD) |
